Measurements taken from PMC11046469, “Leveraging a Phage-Encoded Noncanonical Amino Acid: A Novel Pathway to Potent and Selective Epigenetic Reader Protein Inhibitors” (ACS Central Science, 2024).

Each substance was assayed against T1, ENL YEATS domain (AviSUMO-ENL YEATS) (Homo sapiens, UniProt Q03111) (assay: Phage panning of BuK-containing 7-mer library against AviSUMO-ENL YEATS with Illumina NGS abundance). Conditions: sheet ENLR3: round 3 of panning against ENL YEATS; TAG = amber codon (BuK); 7-mer library positions V1-V7.
T1 construct: encoding ENL YEATS (aa 1−148) was cloned in pET28a-; made in house; host or cells: E. coli BL21(DE3pLysS), co-expressed with BirA (pBirAcm)
T1 sequence (Q03111 1-148): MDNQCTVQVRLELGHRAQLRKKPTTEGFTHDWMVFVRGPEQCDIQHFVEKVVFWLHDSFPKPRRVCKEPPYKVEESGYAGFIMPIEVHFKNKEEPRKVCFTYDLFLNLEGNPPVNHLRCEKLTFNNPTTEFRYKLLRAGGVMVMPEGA
Procedure, shortened: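 Phage displaying BuK-containing amber-obligate 7-mer peptides, made with 5 mM BuK, was panned against biotinylated AviSUMO-ENL YEATS on streptavidin beads with washes of rising stringency. Rounds 1 and 3 were sequenced by Illumina NGS, and sequences with mismatches were filtered out before copy-number abundance was counted.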

Row | Substance | n (number of NGS reads of the unique amino acid sequence) | percent (share of sequence reads) [%]
1 | LLIIETAGG | 1 | 0.0009106
2 | LCGPRTAGD | 1 | 0.0009106
3 | HSTLFTAGG | 2 | 0.001821
4 | QCGPLTAGD | 10 | 0.009106
5 | WTVYCYTAG | 3 | 0.002732
6 | LTAGSSASG | 1 | 0.0009106
7 | LNAEFTAGA | 1 | 0.0009106
8 | GRAVDTAGG | 1 | 0.0009106
9 | WSIIETAGG | 3 | 0.002732
10 | CWVCLPH | 1 | 0.0009106
11 | FLTRCML | 1 | 0.0009106
12 | HFTLFTAGG | 2 | 0.001821
13 | HSWFTAGDG | 1 | 0.0009106
14 | YDVCCYTAG | 6 | 0.005464
15 | QCGQRTAGD | 10 | 0.009106
16 | TAIFCYTAG | 3 | 0.002732
17 | HCVLFTAGG | 1 | 0.0009106
18 | HYVLFYG | 1 | 0.0009106
19 | WWIIETAGE | 10 | 0.009106
20 | WWTIETAGG | 2 | 0.001821
21 | WLIIETAGG | 30 | 0.02732
22 | QCGLRTAGD | 4 | 0.003642
23 | HLTLFTAGD | 4 | 0.003642
24 | CYDLCYG | 1 | 0.0009106
25 | IQTAGITAS | 1 | 0.0009106
26 | FKCTAGNGC | 1 | 0.0009106
27 | ATAGSFHYL | 1 | 0.0009106
28 | FLYTAGMPV | 1 | 0.0009106

Row | Substance | n (number of NGS reads of the unique amino acid sequence) | percent (share of sequence reads) [%]
29 | CWGFEKTAG | 1 | 0.0009106
30 | YEVYCYTAG | 2 | 0.001821
31 | YDVYCCTAG | 5 | 0.004553
32 | YDVYYYTAG | 7 | 0.006374
33 | CWVCTAGPH | 74 | 0.06739
34 | HLTFFTAGG | 3 | 0.002732
35 | WWIIETAGR | 6 | 0.005464
36 | YLYYVPC | 6 | 0.005464
37 | RTVYCYTAG | 142 | 0.1293
38 | LWIIETAGG | 26 | 0.02368
39 | YDVYSYTAG | 3 | 0.002732
40 | SWYITFTAG | 79 | 0.07194
41 | HLTLFYG | 3 | 0.002732
42 | WWVFDATAG | 10 | 0.009106
43 | HLTLFTAGV | 4 | 0.003642
44 | LWIFTPTAG | 4 | 0.003642
45 | HIKCTAGII | 1 | 0.0009106
46 | HYVLFTAGW | 1 | 0.0009106
47 | SWILWTAGG | 8 | 0.007285
48 | CWSTAGNGD | 1 | 0.0009106
49 | YAIYCYTAG | 7 | 0.006374
50 | CPCWTAGLL | 1 | 0.0009106
51 | WWIIETAGD | 23 | 0.02094
52 | SQCTAGECA | 2 | 0.001821
53 | HTRSMTAGN | 1 | 0.0009106
54 | YDVYFYTAG | 47 | 0.0428
55 | YDVYCYY | 26 | 0.02368

Same assay, conditions: sheet ENLR3: round 3 of selection against ENL YEATS; TAG = amber codon (BuK)

Row | Substance | n (number of NGS reads of the 7-mer sequence V1-V7) | percent (share of NGS reads of the 7-mer sequence V1-V7) [%]
56 | QCGPRTAGE | 1 | 0.0009106
57 | YDVYCYK | 1 | 0.0009106
58 | QCGPRTAGV | 1 | 0.0009106
59 | NTITAGISL | 1 | 0.0009106
60 | WWIIATAGG | 1 | 0.0009106
61 | TAGDVYCYTAG | 1 | 0.0009106
62 | YLYTAGVPF | 1 | 0.0009106
63 | QCGPRQD | 1 | 0.0009106
64 | YLTLFTAGG | 1 | 0.0009106
65 | TAGAFFCIL | 1 | 0.0009106
66 | NTAGNIGLY | 1 | 0.0009106
67 | WFIYTAGGC | 1 | 0.0009106
68 | SMMTAGSST | 1 | 0.0009106
69 | TAGSFLYSF | 1 | 0.0009106
70 | YDVYCYE | 1 | 0.0009106
71 | YRWVFSF | 1 | 0.0009106
